± gives the uncertainty stated by the source.
Test: self-splicing fitness, log relative to wild type (ln ratio); higher = more splicing; Tetrahymena group I intron in knt gene, E. coli kanamycin selection, DiMSum; sequences stand for … in CUCUCU…GGAGGGAAAAGUUAUCAGGCAUGCACCUGGUAGCUAGUCUUUAAACCAAUAGAUUGCAUCGGUUUAAAAGGCAAGACCGUCAAAUUGCGGGAAAGGGGUCAACAGCCGUUCAGUACCAAGUCUCAGGGGAAACUUUGAGAUGGCCUUGCAAAGGGUAUGGUAAUAAGCUGACGGACAUGGUCCUAACCACGCAGCCAAGUCCUAAGUCAACAGAUCUUCUGUUGAUAUGGAUGCAGUUCACAGACUAAAUGUCGGUCGGGGAAGAUGUAUUCUUCUCAUAAGAUAUAGUCGGACCUCUCCUUAAUGGGAGCUAGCGGAUGAAGUGAUGCAACACUGGAGCCGCUGGGAACUAAUUUGUAUGCGAAAGUAUAUUGAUUAGUUUUGGAGUACUCGUGGUCG
Summary of the method: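 Library with all eight P1ex-region intron nucleotides randomised, intron inside the knt kanamycin-resistance gene on pET-22b(+), in E. coli BL21(DE3). Cells grew overnight at 37°C or 30°C on LB agar with or without 25 μg/mL kanamycin (plus 100 μg/mL carbenicillin, 50 μM IPTG, 0.2% rhamnose), in six replicate transformations. Pooled colonies were amplicon-sequenced on Illumina HiSeq 2500. DiMSum fitness is the error-weighted combination of wild-type-normalised replicate fold changes, kanamycin versus none.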

CCAAAGCAAUAUUACGGUUG
self-splicing fitness (ln) (30 °C): -1.18 ± 0.062
self-splicing fitness (ln) (37 °C): -0.628 ± 0.074

CCAAAGCAAUAUUACGUCCC
self-splicing fitness (ln) (30 °C): -3.62 ± 0.35
self-splicing fitness (ln) (37 °C): -1.59 ± 0.27

CCAAAGCAAUAUUACGUGCG
self-splicing fitness (ln) (30 °C): -0.979 ± 0.065
self-splicing fitness (ln) (37 °C): -0.611 ± 0.081

CCACAGCAAUAUUACGACUG
self-splicing fitness (ln) (30 °C): -2.92 ± 0.11
self-splicing fitness (ln) (37 °C): -0.694 ± 0.092

CCACAGCAAUAUUACGCAAU
self-splicing fitness (ln) (30 °C): -3.41 ± 0.2
self-splicing fitness (ln) (37 °C): -2.66 ± 0.25

CCACAGCAAUAUUACGCACU
self-splicing fitness (ln) (30 °C): -3.41 ± 0.1
self-splicing fitness (ln) (37 °C): -2.27 ± 0.12

CCACAGCAAUAUUACGCCGA
self-splicing fitness (ln) (30 °C): -3.67 ± 0.26
self-splicing fitness (ln) (37 °C): -2.26 ± 0.17

CCACAGCAAUAUUACGCCGU
self-splicing fitness (ln) (30 °C): -2.9 ± 0.24
self-splicing fitness (ln) (37 °C): -1.87 ± 0.24

CCACAGCAAUAUUACGCGGG
self-splicing fitness (ln) (30 °C): -3.14 ± 0.12
self-splicing fitness (ln) (37 °C): -2.77 ± 0.16

CCACAGCAAUAUUACGGAAG
self-splicing fitness (ln) (30 °C): -1.87 ± 0.098
self-splicing fitness (ln) (37 °C): -0.76 ± 0.1

CCACAGCAAUAUUACGGACU
self-splicing fitness (ln) (30 °C): -3.9 ± 0.15
self-splicing fitness (ln) (37 °C): -2.95 ± 0.14

CCACAGCAAUAUUACGGGGA
self-splicing fitness (ln) (30 °C): -3.12 ± 0.19
self-splicing fitness (ln) (37 °C): -2.51 ± 0.17

CCACAGCAAUAUUACGGGUA
self-splicing fitness (ln) (30 °C): -3.44 ± 0.21
self-splicing fitness (ln) (37 °C): -2.88 ± 0.18

CCACAGCAAUAUUACGGUAG
self-splicing fitness (ln) (30 °C): -0.799 ± 0.046
self-splicing fitness (ln) (37 °C): -0.163 ± 0.065

CCACAGCAAUAUUACGUCCC
self-splicing fitness (ln) (30 °C): -3.18 ± 0.43
self-splicing fitness (ln) (37 °C): -2.06 ± 0.4

CCACAGCAAUAUUACGUCGA
self-splicing fitness (ln) (30 °C): -2.93 ± 0.11
self-splicing fitness (ln) (37 °C): -1.47 ± 0.099

CCACAGCAAUAUUACGUGUA
self-splicing fitness (ln) (30 °C): -3.23 ± 0.096
self-splicing fitness (ln) (37 °C): -1.63 ± 0.069

CCACAGCAAUAUUACGUUGG
self-splicing fitness (ln) (30 °C): -3.83 ± 0.11
self-splicing fitness (ln) (37 °C): -2.51 ± 0.13

CCACAGCAAUAUUACGUUUA
self-splicing fitness (ln) (30 °C): -3.53 ± 0.15
self-splicing fitness (ln) (37 °C): -2.47 ± 0.16

CCACAGCAAUAUUACGUUUG
self-splicing fitness (ln) (30 °C): -1.7 ± 0.054
self-splicing fitness (ln) (37 °C): -0.24 ± 0.069

CCAGAGCAAUAUUACGCAGU
self-splicing fitness (ln) (30 °C): -3.22 ± 0.13
self-splicing fitness (ln) (37 °C): -3.42 ± 0.21

CCAGAGCAAUAUUACGCCCG
self-splicing fitness (ln) (30 °C): -2.01 ± 0.26
self-splicing fitness (ln) (37 °C): -1.17 ± 0.37

CCAGAGCAAUAUUACGCGUA
self-splicing fitness (ln) (30 °C): -1.99 ± 0.19
self-splicing fitness (ln) (37 °C): -4.46 ± 0.38

CCAGAGCAAUAUUACGCGUG
self-splicing fitness (ln) (30 °C): -0.704 ± 0.069
self-splicing fitness (ln) (37 °C): -0.93 ± 0.095

CCAGAGCAAUAUUACGCUAG
self-splicing fitness (ln) (30 °C): -3.84 ± 0.29
self-splicing fitness (ln) (37 °C): -2.38 ± 0.28

CCAGAGCAAUAUUACGCUAU
self-splicing fitness (ln) (30 °C): -3.78 ± 0.43
self-splicing fitness (ln) (37 °C): -2.26 ± 0.37

CCAGAGCAAUAUUACGGACG
self-splicing fitness (ln) (30 °C): -1.73 ± 0.069
self-splicing fitness (ln) (37 °C): -0.584 ± 0.085

CCAGAGCAAUAUUACGGAGA
self-splicing fitness (ln) (30 °C): -2.38 ± 0.26

CCAGAGCAAUAUUACGGAGC
self-splicing fitness (ln) (30 °C): -2.89 ± 0.35

CCAGAGCAAUAUUACGGCGU
self-splicing fitness (ln) (30 °C): -4.2 ± 0.23
self-splicing fitness (ln) (37 °C): -3.29 ± 0.29

CCAGAGCAAUAUUACGGCUA
self-splicing fitness (ln) (30 °C): -2.84 ± 0.2
self-splicing fitness (ln) (37 °C): -2.94 ± 0.4

CCAGAGCAAUAUUACGGGAU
self-splicing fitness (ln) (30 °C): -4.38 ± 0.3
self-splicing fitness (ln) (37 °C): -2.48 ± 0.18

CCAGAGCAAUAUUACGGGGA
self-splicing fitness (ln) (30 °C): -3.06 ± 0.18
self-splicing fitness (ln) (37 °C): -2.61 ± 0.21

CCAGAGCAAUAUUACGGUCU
self-splicing fitness (ln) (30 °C): -4.02 ± 0.18
self-splicing fitness (ln) (37 °C): -2.31 ± 0.23

CCAGAGCAAUAUUACGGUUG
self-splicing fitness (ln) (30 °C): -1.11 ± 0.089
self-splicing fitness (ln) (37 °C): -1.04 ± 0.13

CCAGAGCAAUAUUACGUACA
self-splicing fitness (ln) (37 °C): -2.77 ± 0.29

CCAGAGCAAUAUUACGUACU
self-splicing fitness (ln) (37 °C): -1.97 ± 0.18

CCAGAGCAAUAUUACGUCGG
self-splicing fitness (ln) (30 °C): -4.42 ± 0.17
self-splicing fitness (ln) (37 °C): -2.2 ± 0.13

CCAGAGCAAUAUUACGUCUU
self-splicing fitness (ln) (30 °C): -3.89 ± 0.21
self-splicing fitness (ln) (37 °C): -3.03 ± 0.2

CCAGAGCAAUAUUACGUGGG
self-splicing fitness (ln) (30 °C): -3.73 ± 0.27
self-splicing fitness (ln) (37 °C): -2.29 ± 0.18

CCAGAGCAAUAUUACGUUAG
self-splicing fitness (ln) (30 °C): -3.15 ± 0.097
self-splicing fitness (ln) (37 °C): -1.72 ± 0.097

CCAUAGCAAUAUUACGACAU
self-splicing fitness (ln) (30 °C): -3.882 ± 0.026
self-splicing fitness (ln) (37 °C): -2.93 ± 0.04

CCAUAGCAAUAUUACGAGGG
self-splicing fitness (ln) (30 °C): -3.56 ± 0.15
self-splicing fitness (ln) (37 °C): -2.25 ± 0.19

CCAUAGCAAUAUUACGAUAC
self-splicing fitness (ln) (30 °C): -3 ± 0.29
self-splicing fitness (ln) (37 °C): -2.33 ± 0.23

CCAUAGCAAUAUUACGAUAU
self-splicing fitness (ln) (30 °C): -3.76 ± 0.2
self-splicing fitness (ln) (37 °C): -2.97 ± 0.19

CCAUAGCAAUAUUACGAUGG
self-splicing fitness (ln) (30 °C): -3.35 ± 0.17
self-splicing fitness (ln) (37 °C): -2.38 ± 0.18

CCAUAGCAAUAUUACGAUGU
self-splicing fitness (ln) (30 °C): -3.94 ± 0.22
self-splicing fitness (ln) (37 °C): -2.71 ± 0.2

CCAUAGCAAUAUUACGCACG
self-splicing fitness (ln) (30 °C): -0.758 ± 0.081
self-splicing fitness (ln) (37 °C): -0.715 ± 0.1

CCAUAGCAAUAUUACGCCUG
self-splicing fitness (ln) (30 °C): -1.08 ± 0.084
self-splicing fitness (ln) (37 °C): 0.137 ± 0.099

CCAUAGCAAUAUUACGCUUC
self-splicing fitness (ln) (37 °C): -2.24 ± 0.49

CCAUAGCAAUAUUACGGAAU
self-splicing fitness (ln) (30 °C): -1.22 ± 0.15
self-splicing fitness (ln) (37 °C): -2.38 ± 0.2

CCAUAGCAAUAUUACGGGUG
self-splicing fitness (ln) (30 °C): -1 ± 0.06
self-splicing fitness (ln) (37 °C): -1.48 ± 0.078

CCAUAGCAAUAUUACGGGUU
self-splicing fitness (ln) (30 °C): -3.69 ± 0.17
self-splicing fitness (ln) (37 °C): -3.79 ± 0.34

CCAUAGCAAUAUUACGGUCG
self-splicing fitness (ln) (30 °C): -0.61 ± 0.069
self-splicing fitness (ln) (37 °C): -0.291 ± 0.095

CCAUAGCAAUAUUACGUACA
self-splicing fitness (ln) (30 °C): -3.14 ± 0.21
self-splicing fitness (ln) (37 °C): -1.96 ± 0.21

CCAUAGCAAUAUUACGUCUC
self-splicing fitness (ln) (30 °C): -4.6 ± 0.28
self-splicing fitness (ln) (37 °C): -3.05 ± 0.22

CCAUAGCAAUAUUACGUGGC
self-splicing fitness (ln) (30 °C): -4.63 ± 0.29
self-splicing fitness (ln) (37 °C): -2.43 ± 0.24

CCAUAGCAAUAUUACGUGUC
self-splicing fitness (ln) (30 °C): -3.89 ± 0.2
self-splicing fitness (ln) (37 °C): -2.45 ± 0.23

CCAUAGCAAUAUUACGUUGA
self-splicing fitness (ln) (30 °C): -3.57 ± 0.26
self-splicing fitness (ln) (37 °C): -2.31 ± 0.15

CCAUAGCAAUAUUACGUUGG
self-splicing fitness (ln) (30 °C): -4.37 ± 0.25
self-splicing fitness (ln) (37 °C): -3.27 ± 0.24

CCCAAGCAAUAUUACGACCG
self-splicing fitness (ln) (30 °C): -3.32 ± 0.24
self-splicing fitness (ln) (37 °C): -3.03 ± 0.47

CCCAAGCAAUAUUACGAGCC
self-splicing fitness (ln) (30 °C): -3.79 ± 0.4
self-splicing fitness (ln) (37 °C): -2.79 ± 0.44

CCCAAGCAAUAUUACGAGGG
self-splicing fitness (ln) (30 °C): -4.18 ± 0.17
self-splicing fitness (ln) (37 °C): -2.53 ± 0.16

CCCAAGCAAUAUUACGAUAG
self-splicing fitness (ln) (30 °C): -2.95 ± 0.16
self-splicing fitness (ln) (37 °C): -2.54 ± 0.22

CCCAAGCAAUAUUACGAUUG
self-splicing fitness (ln) (30 °C): -3.88 ± 0.2
self-splicing fitness (ln) (37 °C): -2.78 ± 0.28

CCCAAGCAAUAUUACGCACA
self-splicing fitness (ln) (30 °C): -2.53 ± 0.2
self-splicing fitness (ln) (37 °C): -2.19 ± 0.31

CCCAAGCAAUAUUACGCCAA
self-splicing fitness (ln) (30 °C): -2.82 ± 0.16
self-splicing fitness (ln) (37 °C): -2.47 ± 0.2

CCCAAGCAAUAUUACGCCUG
self-splicing fitness (ln) (30 °C): -3.12 ± 0.19
self-splicing fitness (ln) (37 °C): -2.88 ± 0.27

CCCAAGCAAUAUUACGCGGG
self-splicing fitness (ln) (30 °C): -3.8 ± 0.17
self-splicing fitness (ln) (37 °C): -2.45 ± 0.18

CCCAAGCAAUAUUACGCUGA
self-splicing fitness (ln) (30 °C): -3.51 ± 0.25
self-splicing fitness (ln) (37 °C): -3.69 ± 0.34

CCCAAGCAAUAUUACGCUGU
self-splicing fitness (ln) (30 °C): -3.8 ± 0.15
self-splicing fitness (ln) (37 °C): -2.95 ± 0.17

CCCAAGCAAUAUUACGCUUA
self-splicing fitness (ln) (30 °C): -3.38 ± 0.22
self-splicing fitness (ln) (37 °C): -2.78 ± 0.21

CCCAAGCAAUAUUACGCUUC
self-splicing fitness (ln) (30 °C): -2.84 ± 0.18
self-splicing fitness (ln) (37 °C): -3.15 ± 0.43

CCCAAGCAAUAUUACGGCCA
self-splicing fitness (ln) (30 °C): -3.58 ± 0.31
self-splicing fitness (ln) (37 °C): -1.58 ± 0.16

CCCAAGCAAUAUUACGGGUU
self-splicing fitness (ln) (30 °C): -2.98 ± 0.12
self-splicing fitness (ln) (37 °C): -2.9 ± 0.2

CCCAAGCAAUAUUACGUACU
self-splicing fitness (ln) (30 °C): -3.84 ± 0.19
self-splicing fitness (ln) (37 °C): -2.46 ± 0.21

Reference: the supplement of paper PMC7877785
